# Laboratory results from article PMC3942289, “Characterization of Ten Heterotetrameric NDP-Dependent Acyl-CoA Synthetases of the Hyperthermophilic Archaeon Pyrococcus furiosus” (Archaea, 2014).
# B1: ACS5-A (Pyrococcus furiosus DSM 3638) (protein)
# chain 1: MINNLDIKEQLRSFFDPKAVAIIGATNKKGKVGNVIFENFKRNKERGIFKGNIYPVNPKLDEIDGYKVYHSVEELPDDTDLAVVAIPAPAVPETMRKIAEKGIKAVVIITGGFGELGEEGKRMEQEILEIARAHGIRVIGPNCVGVYVPDTGVDTVFLPEEKMDRPKSGPIAFVSQSGAFAAAMLDWAAMAGIGIGKMVSYGNKIDVDDADLMEYFAQDEQIKVMTFYIEGVKDGRRFMEVAKRVTKIKPIIALKSGRTEYGAKAASSHTGSLAGQDVIYDAVFKQTGIIRAEDFEHMFDLAKAFAKCKLPKGDRIGIITDGGGAGVMASDAVAKFGLKLAELSEETLRFLREKFPPHAVVGNPTDVVGDTDAERYRLALEAFTKDPNVDAILVIVLFQVPLLDEEEVIEIIADYAKKSDKPIVAVSMGGYKTDRYAKMLEEKGVPVYPTPERGVRALAGLVRYAEYLRKMGE
# chain 2: MKGEALKIIEEVLAQGRTAMVEYEAKQVLKAYGLPVPEEKLAKTLDEALKYAEEIGYPVAMKLMSPQILHKSDAKVVMLNIKSPEELKKKWEEIHENARKYRPDAEIFGVLIAPMLKPGREVIIGVTEDPQFGHAIMFGLGGIFVEILKDVTFRIIPITEKDARKMITEIKAYPILAGARGEEPADIEAIVDMLLKVSKLVDDLKDYIKEMDLNPVFVYRKGEGAVVVDARIILKG
# notes: alpha (pET24a) and beta-A (pET21b) coexpressed in E. coli BL21(DE3) pRIL, untagged, heat-treated and desalted; alpha2beta2 ~140 kDa; The same primer pair is printed for PF1838 and PF1837 (probable misprint)
# B2: ACS1-A (Pyrococcus furiosus DSM 3638) (protein)
# chain 1: MSLEALFNPKSVAVIGASAKPGKIGYAIMKNLIEYGYEGKIYPVNIKGGEIEINGRKFKVYKSVLEIPDEVDMAVIVVPAKFVPQVLEECGQKGVKVVPIISSGFGELGEEGKKVEQQLVETARKYGMRILGPNIFGVVYTPAKLNATFGPTDVLPGPLALISQSGALGIALMGWTILEKIGLSAVVSVGNKADIDDADLLEFFKDDENTRAILIYMEGVKDGRRFMEVAKEVSKKKPIIVIKAGRSERGAKAAASHTGSLAGSDKVYSAAFKQSGVLRAYTIGEAFDWARALSNLPEPQGDNVVIITNGGGIGVMATDAAEEEGLHLYDNLEELKIFANHMPPFGSYKNPVDLTGMADGKSYEGAIRDALAHPEMHSIAVLYCQTAVLDPRELAEIVIREYNESGRKKPLVVAIVGGIEAKEAIDMLNENGIPAYPEPERAIKALSALYKWSKWKAKHKEK
# chain 2: B1 chain 2
# notes: alpha (pET24a) and beta-A (pET21b) coexpressed in E. coli BL21(DE3) pRIL, untagged (stop codons in primers), heat-treated and desalted; alpha2beta2 ~140 kDa; Printed PF1837 primers are identical to those of PF1838 (probable misprint)
# B3: ACS3-A (Pyrococcus furiosus DSM 3638) (protein)
# chain 1: MTVNLDFLFYPKSVAVIGASATPGKVGNAIMKSLAANFNGKVYPVNVKEGEIEINGKKFKVYRSIKEIPDEVDVAVIAVPAKFVPDVIDECGEKGVKGAIVISAGFKEAGRADLEEELVKRARKWGIRVVGPNCLGVTNLENGFDCNFNPPERQARPKFGPIAFMSQSGAFGAAILDWAARHEVGMSKFISLGNMADLDESDFMLYLKDDPKTKVITAYIEGVKDGRKFFNAAKETTKVKPVIILKAGRTEAGAKAAASHTGSLAGSYKIYQAAFEQTGVLAAKSMRQLFNYAKALAMQSPAKGDRVAIVTNGGGAGVMMSDGLLEAGLKLAEFTEETKEKFRKAIEEGLLPEHMSYKNPVDVIGDAPSSRYETAIRYVLEDPNVDIVVVIALFQSPALDEGIVDVMERVKEYGKPIVFVAPGGEYPERMARKIEEKGIPVFETVEDGVDAVYALIKYGKYLAEL
# chain 2: B1 chain 2
# notes: alpha (pET24a) and beta-A (pET21b) coexpressed in E. coli BL21(DE3) pRIL, untagged, heat-treated and desalted; alpha2beta2 ~140 kDa; Printed PF1837 primers identical to PF1838 (probable misprint)
# B4: ACS2-A (Pyrococcus furiosus DSM 3638) (protein)
# chain 1: MLDYFFNPRGIAVIGASNDPKKLGYEVFKNLKEYQGGKVYPVNVREEEVQGVKAYKSVKEIPGEVDLAIIVVPKKFVKQTLIECGEKGVKGVVIITAGFGETGEEGKREEKELVEIAHKYGMRIIGPNCVGIMNTHANLNATFITVAKKGNVAFISQSGALGAGIVYKTIKEDIGFSKFISVGNMADLDFADLMEYLADTQEDKAIALYIEGIKDGRRFIEVAKKVTKKKPVIALKAGKSESGSRAAASHTGSLAGSWKIYEAAFKQSGVLVANTIDEMLSMARAFTQPLPKGNRVAIMTNAGGPGVLTADEIDKRGLKLANLEEKTIEELRSFLPPMAAVKNPVDMIASARGEDYYRTAKLLLQDPNVDILIAICVVPTFAGMTPTEHAEGIIRAVKEVNNGKPVLALFMAGYVSEKAKELLEKNGIPTYERPEDVAAAAYALVQQAKNVGGGVNG
# chain 2: B1 chain 2
# notes: as for B3
# B5: ACS4-A (Pyrococcus furiosus DSM 3638) (protein)
# chain 1: MRYFFYPNSVAIFGSFREGAIAREILRNIVEGGFEGKIIPVNPKGGEVEVAGKKFNIKEKLDEPVDVSIIAIPAKLVPELIRGLKGLTKGAVVISAGFSEVGNVELEKELIKAAKEAGIRVIGPNCAGIFGVHAKFYGSFEVRVNPGGLALISQSGAFGGAALAMGNEEGIGFSAFVSYGNAADLDESDFLRFFADDENTRVIGLYIEGVKDGRKFLDALRYAASKKPVIILKAGKSRAGARAAASHTGSLAGSYEIYRAAFRQAGAIEVEEMEELFDAAKAFEMYERAGRRVAIITNSGGPGVLATDKLERLGLEIAKLTEETVEELRSFLPPQCSVKNPVDLIADADYERYKRAIEVVCRDENVDAILVICVPPIFIPSEEIARAVVEANCDKPIIVNFMAGELVREGIKILESKKIKNFPTPERAAKALYWLSLRSSSE
# chain 2: B1 chain 2
# notes: as for B3
# Assays:
# ACS3-G = molecular target: T1, ACS3-G (Pyrococcus furiosus, UniProt E7FHP1+Q8U461); conditions: reverse reaction; 20 mM acid, 1 mM ATP or GTP, 0.5 mM CoA, 2 mM MgCl2, pH 7.0, 80°C
# T1 construct: gene PF0233
# T1 sequence (E7FHP1 whole entry, one chain of several): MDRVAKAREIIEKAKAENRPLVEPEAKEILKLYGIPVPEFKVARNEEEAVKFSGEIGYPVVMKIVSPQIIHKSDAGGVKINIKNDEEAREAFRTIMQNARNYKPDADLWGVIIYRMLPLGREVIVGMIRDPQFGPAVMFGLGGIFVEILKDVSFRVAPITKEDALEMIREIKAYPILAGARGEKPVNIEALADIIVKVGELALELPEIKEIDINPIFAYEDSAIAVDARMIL
# ACS4-G = molecular target: T2, ACS4-G (Pyrococcus furiosus, UniProt E7FHP1+Q8U1W9); conditions: reverse reaction; 20 mM acid, 1 mM ATP or GTP, 0.5 mM CoA, 2 mM MgCl2, pH 7.0, 80°C
# T2 construct: gene PF1085
# T2 sequence (E7FHP1 whole entry, one chain of several): as above
# ACS5-G = molecular target: T3, ACS5-G (Pyrococcus furiosus, UniProt E7FHP1+Q8TZY7); conditions: reverse reaction; 20 mM acid, 1 mM ATP or GTP, 0.5 mM CoA, 2 mM MgCl2, pH 7.0, 80°C
# T3 construct: gene PF1838
# T3 sequence (E7FHP1 whole entry, one chain of several): as above
# ACS2-G = molecular target: T4, ACS2-G (Pyrococcus furiosus, UniProt E7FHP1+Q8U3D6); conditions: reverse reaction; 20 mM acid, 1 mM ATP or GTP, 0.5 mM CoA, 2 mM MgCl2, pH 7.0, 80°C
# T4 construct: gene acdAII
# T4 sequence (E7FHP1 whole entry, one chain of several): as above
# [1] = substrate: CC(=O)SCCNC(=O)CCNC(=O)[C@H](O)C(C)(C)COP(=O)(O)OP(=O)(O)OC[C@H]1O[C@@H](n2cnc3c(N)ncnc32)[C@H](O)[C@@H]1OP(=O)(O)O; assay: DTNB assay of released CoASH, 96-well; format: biochemical, Pyrococcus furiosus; conditions: forward reaction, 2 mM ADP, 10 mM K2HPO4, 2 mM MgCl2, pH 7.0, 80°C
# Source text: (§1) DTNB assay of released CoASH, 96-well on ACS5-A
# [2] = substrate: CC(C)C(=O)SCCNC(=O)CCNC(=O)[C@H](O)C(C)(C)COP(=O)(O)OP(=O)(O)OC[C@H]1O[C@@H](n2cnc3c(N)ncnc32)[C@H](O)[C@@H]1OP(=O)(O)O; assay: DTNB assay of released CoASH, 96-well; format: biochemical, Pyrococcus furiosus; conditions: forward reaction, 2 mM ADP, 10 mM K2HPO4, 2 mM MgCl2, pH 7.0, 80°C
# Source text: as §1
# [3] = substrate: CC(C)CC(=O)SCCNC(=O)CCNC(=O)[C@H](O)C(C)(C)COP(=O)(O)OP(=O)(O)OC[C@H]1O[C@@H](n2cnc3c(N)ncnc32)[C@H](O)[C@@H]1OP(=O)(O)O; assay: DTNB assay of released CoASH, 96-well; format: biochemical, Pyrococcus furiosus; conditions: forward reaction, 2 mM ADP, 10 mM K2HPO4, 2 mM MgCl2, pH 7.0, 80°C
# Source text: as §1
# [4] = substrate: Nc1nc2c(ncn2[C@@H]2O[C@H](COP(=O)(O)OP(=O)(O)OP(=O)(O)O)[C@@H](O)[C@H]2O)c(=O)[nH]1; assay: colorimetric phosphate release, 96-well; format: biochemical, Pyrococcus furiosus; conditions: reverse reaction (acid + CoA), 20 mM acid substrate, 0.5 mM CoA, 2 mM MgCl2, pH 7.0, 80°C
# [5] = substrate: Nc1ncnc2c1ncn2[C@@H]1O[C@H](COP(=O)(O)OP(=O)(O)OP(=O)(O)O)[C@@H](O)[C@H]1O; assay: colorimetric phosphate release, 96-well; format: biochemical, Pyrococcus furiosus; conditions: reverse reaction (acid + CoA), 20 mM acid substrate, 0.5 mM CoA, 2 mM MgCl2, pH 7.0, 80°C
# [6] = substrate: CC(=O)SCCNC(=O)CCNC(=O)[C@H](O)C(C)(C)COP(=O)(O)OP(=O)(O)OC[C@H]1O[C@@H](n2cnc3c(N)ncnc32)[C@H](O)[C@@H]1OP(=O)(O)O; assay: DTNB assay of released CoASH, 96-well; format: biochemical, Pyrococcus furiosus; conditions: forward reaction, 2 mM ADP, 10 mM K2HPO4, 2 mM MgCl2, pH 7.0, 80°C; remark: listed apart in the source
# Source text: DTNB assay of released CoASH, 96-well on ACS1-A
# [7] = substrate: CC(=O)SCCNC(=O)CCNC(=O)[C@H](O)C(C)(C)COP(=O)(O)OP(=O)(O)OC[C@H]1O[C@@H](n2cnc3c(N)ncnc32)[C@H](O)[C@@H]1OP(=O)(O)O; assay: DTNB assay of released CoASH, 96-well; format: biochemical, Pyrococcus furiosus; conditions: forward reaction, 2 mM ADP, 10 mM K2HPO4, 2 mM MgCl2, pH 7.0, 80°C; remark: listed apart in the source
# Source text: DTNB assay of released CoASH, 96-well on ACS3-A
# [8] = substrate: CC(=O)SCCNC(=O)CCNC(=O)[C@H](O)C(C)(C)COP(=O)(O)OP(=O)(O)OC[C@H]1O[C@@H](n2cnc3c(N)ncnc32)[C@H](O)[C@@H]1OP(=O)(O)O; assay: DTNB assay of released CoASH, 96-well; format: biochemical, Pyrococcus furiosus; conditions: forward reaction, 2 mM ADP, 10 mM K2HPO4, 2 mM MgCl2, pH 7.0, 80°C; remark: listed apart in the source
# Source text: (§2) DTNB assay of released CoASH, 96-well on ACS2-A
# [9] = substrate: CC(C)(COP(=O)(O)OP(=O)(O)OC[C@H]1O[C@@H](n2cnc3c(N)ncnc32)[C@H](O)[C@@H]1OP(=O)(O)O)[C@@H](O)C(=O)NCCC(=O)NCCSC(=O)Cc1ccccc1; assay: DTNB assay of released CoASH, 96-well; format: biochemical, Pyrococcus furiosus; conditions: forward reaction, 2 mM ADP, 10 mM K2HPO4, 2 mM MgCl2, pH 7.0, 80°C
# Source text: as §2
# [10] = substrate: CC(C)CC(=O)SCCNC(=O)CCNC(=O)[C@H](O)C(C)(C)COP(=O)(O)OP(=O)(O)OC[C@H]1O[C@@H](n2cnc3c(N)ncnc32)[C@H](O)[C@@H]1OP(=O)(O)O; assay: DTNB assay of released CoASH, 96-well; format: biochemical, Pyrococcus furiosus; conditions: forward reaction, 2 mM ADP, 10 mM K2HPO4, 2 mM MgCl2, pH 7.0, 80°C; remark: listed apart in the source
# Source text: as §2
# [11] = substrate: CC(=O)SCCNC(=O)CCNC(=O)[C@H](O)C(C)(C)COP(=O)(O)OP(=O)(O)OC[C@H]1O[C@@H](n2cnc3c(N)ncnc32)[C@H](O)[C@@H]1OP(=O)(O)O; assay: DTNB assay of released CoASH, 96-well; format: biochemical, Pyrococcus furiosus; conditions: forward reaction, 2 mM ADP, 10 mM K2HPO4, 2 mM MgCl2, pH 7.0, 80°C; remark: listed apart in the source
# Source text: DTNB assay of released CoASH, 96-well on ACS4-A
molecule,measurement,setting,value
O=C(O)CCC(=O)O [succinate],relative activity,ACS3-G,The only isoenzyme that showed activity with succinate was ACS3
O=C(O)Cc1c[nH]cn1 [imidazole 4-acetate],relative activity,ACS4-G,ACS4 was the only isoenzyme that shows significant activity with imidazole 4-acetate
C[C@H](O)C(=O)O [lactate],relative activity,ACS5-G,ACS5 is the only enzyme that has significant activity with lactate
CSCCC(=O)O [3-methylthiopropionate],relative activity,ACS2-G,"Surprisingly, ACS2 was also active with 3-methylthiopropionate"
B1,Km,[1],620 ± 1.0 µM
same,kcat/Km,[1],112000 M⁻¹ s⁻¹
same,Km,[2],2730 ± 1080 µM
same,kcat/Km,[2],83000 M⁻¹ s⁻¹
same,Km,[3],820 ± 407 µM
same,kcat/Km,[3],120000 M⁻¹ s⁻¹
B2,Km,[4],223 ± 58 µM
same,kcat/Km,[4],10000 M⁻¹ s⁻¹
same,Km,[5],132 ± 19 µM
same,kcat/Km,[5],140000 M⁻¹ s⁻¹
same,Km,[6],137 ± 91 µM
same,kcat/Km,[6],140000 M⁻¹ s⁻¹
B3,Km,[7],474 ± 165 µM
same,kcat/Km,[7],12000 M⁻¹ s⁻¹
B4,Km,[8],350 ± 2 µM
same,kcat/Km,[8],114000 M⁻¹ s⁻¹
same,Km,[9],3320 ± 1320 µM
same,kcat/Km,[9],150000 M⁻¹ s⁻¹
same,Km,[10],466 ± 119 µM
same,kcat/Km,[10],109000 M⁻¹ s⁻¹
B5,Km,[11],242 ± 46 µM
same,kcat/Km,[11],119000 M⁻¹ s⁻¹
